Experimental data as given in patent publication US20240094220A1 (NORTHEASTERN UNIVERSITY, published 2024).

Target: T1, mouse PD-L1 on the surface of DC 2.4 dendritic cells (mouse, UniProt Q9EP73 19-290)
T1 construct: whole, on cells; also called Programmed Death-Ligand 1
Assay: flow cytometry on DC 2.4 cells, purified Nb detected with fluorophore-conjugated anti-FLAG antibody
Method: While the majority of anti-PD-L1 and anti-CTLA-4 Nbs are currently produced intracellularly in E. coli, the lengthy processes of lysing bacteria and removing endotoxins may dramatically increase costs and demand a centralized facility for production. […] Of note, in the shake-flask expression system, anti-PD-L1 and anti-CTLA-4 Nbs can be secreted into the supernatant of B. subtilis culture at ˜15 mg per liter of culture. To further confirm that these Nbs remain functional following secretion and purification, the mouse dendritic cell line DC 2.4 was chosen because it is known to constitutively express the immunoinhibitory receptor PD-L1 on the cell surface (FIG. 5, Panel A), and it was also validated the expression of PD-L1 by a commercial antibody specific for mouse PD-L1. […] The stained samples were analyzed by flow cytometry and fluorescence microscopy—results of flow cytometry indicated the specific binding of purified anti-PD-L1 Nbs and no binding for the anti-caffeine Nb control in comparison to the unstained sample (FIG. 5, Panel B). […] To further test whether the purification step could be bypassed by directly using bacterial supernatant, 200 μl of the original B. subtilis supernatant containing the anti-PD-L1 Nb was applied to stain ˜one million DC 2.4 cells for fluorescence microscopy.

T1 sequence (Q9EP73 19-290): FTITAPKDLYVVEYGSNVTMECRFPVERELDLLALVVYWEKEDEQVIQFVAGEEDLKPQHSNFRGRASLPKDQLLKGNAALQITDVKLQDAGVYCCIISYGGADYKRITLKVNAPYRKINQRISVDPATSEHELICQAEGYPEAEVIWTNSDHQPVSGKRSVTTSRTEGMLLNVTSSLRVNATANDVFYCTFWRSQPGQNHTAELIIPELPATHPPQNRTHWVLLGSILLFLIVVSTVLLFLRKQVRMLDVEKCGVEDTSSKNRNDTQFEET

B1: anti-caffeine nanobody secreted from B. subtilis (CBD fusion, with FLAG epitope) (VHH, not shown: large carriers)
VHH: QVQLVESGGGLVQAGGSLRLSCTASGRTGTIYSMAWFRQAPGKEREFLATVGWSSGITYYMDSVKGRFTISRDKGKNTVYLQMDSLKPEDTAVYYCTATRAYSVGYDYWGQGTQVTVSS
notes: Negative control in the PD-L1 staining; also called anti-caffeine Nb; CBD-anti-caffeine Nb
binding result: no binding
